Source: paper PMC2615620 (Nucleic Acids Research, 2008)

T1: Snu17 of the RES complex purified from yeast (S. cerevisiae (endogenous in the …, UniProt P40565 1-148))
T1 sequence (looked up): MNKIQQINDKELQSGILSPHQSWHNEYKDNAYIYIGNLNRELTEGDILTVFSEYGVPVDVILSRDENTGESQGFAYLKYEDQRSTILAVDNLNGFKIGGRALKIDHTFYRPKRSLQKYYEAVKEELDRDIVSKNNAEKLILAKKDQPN


Target: T1, Snu17 of the RES complex purified from …
Assay: SEC

stoichiometry N	Binder
1	Pml1 of the RES complex purified from yeast (natural protein, UniProt Q07930 1-204, looked up) MFHRRKRPYNTRNYGHDDKKFKSQYIDIMPDFSPSGLLELESNNKEGIALKHVEPQDAISPDNYMDMLGLEARDRTMYELVIYRKNDKDKGPWKRYDLNGRSCYLVGRELGHSLDTDLDDRTEIVVADIGIPEETSSKQHCVIQFRNVRGILKCYVMDLDSSNGTCLNNVVIPGARYIELRSGDVLTLSEFEEDNDYELIFMNV
1	Bud13 of the RES complex purified from yeast (natural protein, UniProt P46947 1-266, looked up) MALHQYLSETYGPTKPKNKTKKKKKESKSDANSDKTSLIVKERLSTLQQEQEKSGVASFSKFDKQKSKNIWKNLETNELSHAITHPSASSITGNESKNDLKEIRAQEPLVTVADKSKTRKTIYRDAQGHKIQEDSKIDDSSFSRSKYEDEKAAEREQYLKNLNMGDVQKLGINVDAHDKKKNQTASSLTIEDPAITFTHDKERTVKTSLLGRKLYDKPAPENRFAIMPGSRWDGVHRSNGFEEKWFAKQNEINEKKVQSYTLQEDY
